Paper PMC7205012 (Neuron, 2019)
Substitutions are numbered along the chain they refer to. In names and notes the source's numbering stands.

Biological target: the molecule itself
Experiment: cryo-EM structure

B1: wild type human TRPA1 (transient receptor potential channel subfamily A member 1) (natural protein, UniProt O75762 1-1119, looked up)
chain: MKRSLRKMWRPGEKKEPQGVVYEDVPDDTEDFKESLKVVFEGSAYGLQNFNKQKKLKRCDDMDTFFLHYAAAEGQIELMEKITRDSSLEVLHEMDDYGNTPLHCAVEKNQIESVKFLLSRGANPNLRNFNMMAPLHIAVQGMNNEVMKVLLEHRTIDVNLEGENGNTAVIIACTTNNSEALQILLKKGAKPCKSNKWGCFPIHQAAFSGSKECMEIILRFGEEHGYSRQLHINFMNNGKATPLHLAVQNGDLEMIKMCLDNGAQIDPVEKGRCTAIHFAATQGATEIVKLMISSYSGSVDIVNTTDGCHETMLHRASLFDHHELADYLISVGADINKIDSEGRSPLILATASASWNIVNLLLSKGAQVDIKDNFGRNFLHLTVQQPYGLKNLRPEFMQMQQIKELVMDEDNDGCTPLHYACRQGGPGSVNNLLGFNVSIHSKSKDKKSPLHFAASYGRINTCQRLLQDISDTRLLNEGDLHGMTPLHLAAKNGHDKVVQLLLKKGALFLSDHNGWTALHHASMGGYTQTMKVILDTNLKCTDRLDEDGNTALHFAAREGHAKAVALLLSHNADIVLNKQQASFLHLALHNKRKEVVLTIIRSKRWDECLKIFSHNSPGNKCPITEMIEYLPECMKVLLDFCMLHSTEDKSCRDYYIEYNFKYLQCPLEFTKKTPTQDVIYEPLTALNAMVQNNRIELLNHPVCKEYLLMKWLAYGFRAHMMNLGSYCLGLIPMTILVVNIKPGMAFNSTGIINETSDHSEILDTTNSYLIKTCMILVFLSSIFGYCKEAGQIFQQKRNYFMDISNVLEWIIYTTGIIFVLPLFVEIPAHLQWQCGAIAVYFYWMNFLLYLQRFENCGIFIVMLEVILKTLLRSTVVFIFLLLAFGLSFYILLNLQDPFSSPLLSIIQTFSMMLGDINYRESFLEPYLRNELAHPVLSFAQLVSFTIFVPIVLMNLLIGLAVGDIAEVQKHASLKRIAMQVELHTSLEKKLPLWFLRKVDQKSTIVYPNKPRSGGMLFHIFCFLFCTGEIRQEIPNADKSLEMEILKQKYRLKDLTFLLEKQHELIKLIIQKMEIISETEDDDSHCSFQDRFKKEQMEQRNSRWNTVLRAVKAKTHHLEP
modifications: C621 covalently bound to JT010 (TRPA1_(WT-JT010)) or to BITC (TRPA1_(WT-BITC)); N747 glycosylated (two N-acetylglucosamine)
stoichiometry N: 4

B2: human TRPA1 C621S (natural protein, UniProt O75762 1-1119, looked up)
chain: B1 chain with C621S
stoichiometry N: 4
